From paper doi:10.1101/2023.06.17.545066 (bioRxiv, 2023)

Target: the molecule itself
Experiment: SEC

B1: EcL-TTD αβ heterodimer (complex)
chain 1: MMSESNKQQAVNKLTEIVANFTAMISTRMPDDVVDKLKQLKDAETSSMGKIIYHTMFDNMQKAIDLNRPACQDTGEIMFFVKVGSRFPLLGELQSILKQAVEEATVKAPLRHNAVEIFDEVNTGKNTGSGVPWVTWDIIPDNDDAEIEVYMAGGGCTLPGRSKVLMPSEGYEGVVKFVFENISTLAVNACPPVLVGVGIATSVETAAVLSRKAILRPIGSRHPNPKAAELELRLEEGLNRLGIGPQGLTGNSSVMGVHIESAARHPSTIGVAVSTGCWAHRRGTLLVHADLTFENLSHTRSAL
chain 2: MKKILTTPIKAEDLQDIRVGDVIYLTGTLVTCRDVCHRRLIELKRPIPYDLNGKAIFHAGPIVRKNGDKWEMVSVGPTTSMRMESFEREFIEQTGVKLVVGKGGMGPLTEEGCQKFKALHVIFPAGCAVLAATQVEEIEEVHWTELGMPESLWVCRVKEFGPLIVSIDTHGNNLIAENKKLFAERRDPIVEEICEHVHYIK
- stoichiometry N: 2
